# Source: US10640556B2, “Anti amphiregulin antibodies, compositions comprising same and uses thereof” (Yeda Research and Development Co. Ltd., priority 2015, dated 2020)
# T1: human AREG (Homo sapiens, UniProt P15514)
# T1 sequence (P15514 101-198 limits assumed): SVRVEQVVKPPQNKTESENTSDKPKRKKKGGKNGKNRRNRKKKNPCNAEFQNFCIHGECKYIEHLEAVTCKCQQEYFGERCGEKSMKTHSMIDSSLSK
# Key:
# EGFR [1] = target: T2, EGFR (Homo sapiens, UniProt P00533); assay: Ligand-induced receptor ubiquitination assay (MCAS, MLS, H358, A549 cells); format: cell-based; parameters: endogenous in cells; host or cells: MCAS, MLS, H358, A549; conditions: 10 minutes, ligand 100 ng/mL; MCAS, MLS, H358, A549 cells
# Protocol: (§1) The cells were later washed and lysed, and the associated radioactivity was determined. […] The cells were later washed and lysed in 1 N NaOH. Cell-associated radioactivity was determined. […] Washed immunocomplexes, along with whole extracts, were immunoblotted with the indicated antibodies.
# For determination of ligand-induced receptor ubiquitination, cells were extracted in lysis buffer (50 mM HEPES pH 7.5, 150 mM NaCl, 10% glycerol, 1% Triton X-100, 1 mM EDTA, 1 mM EGTA, 10 mM NaF and 30 mM 3-glycerol phosphate) with freshly added 0.2 mM Na3VO4, a protease inhibitor cocktail and 2 mM N-ethylmaleimide (NEM). Twenty μL of protein G agarose beads and 1 μg of antibody were added to 500 μg of protein lysate. After a 2 hour incubation at 4° C., the immunoprecipitates were collected by centrifugation at 14,000 rpm at 4° C. for 1 minute. The supernatant was discarded and the pellet was washed thrice, prior to electrophoresis.
# EGFR [2] = target: T2, EGFR; assay: Receptor downregulation assay in MCAS cells; format: cell-based; parameters: endogenous in cells; host or cells: MCAS, MLS, H358, A549; conditions: ligand 10 ng/ml
# Protocol: as §1
# At the end of the incubation period, the cells were placed on ice, washed with ice cold medium and subjected to mild acid wash (0.2 M Na-acetate buffer, pH 4.5, and 0.5 M NaCl) for 2 minutes, followed by 2 washes in ice cold medium. […] Finally, cells were lysed in 1 N NaOH, and their radioactivity was determined.
# human AREG [3] = target: T1, human AREG; assay: Plasmon resonance and immunoblotting of EGF-family ligands with AR30; format: binding
# Protocol: FIGS. 6A-6F illustrate AR30, an anti-AREG monoclonal antibody, that inhibits auto-phosphorylation of EGFR. FIG. 6A is a photograph of a Coomassie blue staining of an acrylamide gel showing a purified fraction of AREG isolated from bacteria and purified on a NiNTA column. The molecular weight marker lane indicates a 15 kilodalton band; FIG. 6B, cells were seeded in a 24 well plate, washed and incubated with increasing concentrations of the purified TRX-AREG fusion protein (8.5, 85, 850, 8500 ng/ml). […]
# SPR was performed on a BIAcore 3000 instrument (BIAcore, Uppsala, Sweden). […] The net signal was obtained by subtracting the blank signal (plain dextran matrix) from the signal recorded from the immobilized surface. The association phase for analyte binding to all ligands was followed for 4 minutes, and dissociation phases were monitored for 3 minutes. […] The response was monitored as a function of time (sensorgram). […]
# To functionally characterize a selected anti-AREG mAb, its specificity was tested using an Enzyme-Linked Immunosorbent Assay (ELISA) assay covered with different ligands. […] The AR30 affinity to the different ligand was assessed by Surface plasmon resonance (SPR).
# EGFR [4] = assay: AREG-induced EGFR phosphorylation in HeLa cells (immunoblot); format: cell-based, human; conditions: for AREG-induced phosphorylation of EGFR: AREG 100 ng/ml, mAb 0.1-50 μg/ml, FIG. 10A
# Protocol: FIGS. 6A-6F illustrate AR30, an anti-AREG monoclonal antibody, that inhibits auto-phosphorylation of EGFR. FIG. 6A is a photograph of a Coomassie blue staining of an acrylamide gel showing a purified fraction of AREG isolated from bacteria and purified on a NiNTA column. The molecular weight marker lane indicates a 15 kilodalton band; FIG. 6B, cells were seeded in a 24 well plate, washed and incubated with increasing concentrations of the purified TRX-AREG fusion protein (8.5, 85, 850, 8500 ng/ml). […] Following a 10-min long incubation, the cells were lysed and cleared extracts immunoblotted (IB) with an anti-phosphotyrosine antibody (PY-99); FIG. 6C, 96 well plates were coated with the indicated ligands (0.1 μg/ml), and then incubated for 3 hours with three different mAbs specific to AREG. Thereafter, wells were incubated for two hours with an anti-mouse antibody conjugated to HRP, followed by a 30 minutes incubation with ATBS. […] Serum from non-immunized mice was used as a negative control; FIG. 6E, HeLa cells were pre-incubated with (or without) mAb AR30 (20 μg/mL) and increasing concentrations of AREG. Thereafter, whole cell lysates were immunoblotted (IB) using an antibody specific to the phosphorylated form of EGFR (tyrosine 1068) or an antibody to EGFR; and FIG. 6F, HeLa cells were incubated with (or without) AREG (100 ng/mL) in the presence of increasing concentrations of mAb AR30 (5, 10, 20 and 50 μg/mL). Thereafter, cells were lysed and cleared extracts immunoblotted (IB) using the indicated antibodies.
# FIG. 10A illustrates that anti-AREG mAbs inhibit ligand-induced activation of EGFR. HeLa cells were incubated with (or without) AREG (100 ng/ml) in the presence of increasing concentrations of mAb AR30, mAb AR 37 or mAb AR558 (0.1, 0.2, 0.5, 0.75, 1.5, 3.5, 6.25, 12.5, 25 and 50 μg/ml). Thereafter, cells were lysed and cleared extracts immunoblotted (IB) using the indicated antibodies, including an antibody specific to the phosphorylated (active) for of EGFR (pEGFR).
# human AREG [5] = target: T1, human AREG; assay: Antigenic determinant comparison of anti-AREG mAbs; format: binding; conditions: data not shown
# [6] = system: Cal-27 human head and neck cancer cells; assay: Cal-27 head and neck tumor xenograft in nude mice; format: in vivo; conditions: Cal-27 tumors, 300 μg per injection intraperitoneally twice a week
# Protocol: Female nude mice were inoculated subcutaneously with Cal-27 human head and neck cancer cells (2×10^6). Once tumors became palpable (5-7 days) mice were randomized and intraperitoneally injected with saline (Control), or with anti-AR mAbs: AR30, AR37 or AR558 (each at 300 μg per injection). Mice were treated with mAbs twice a week and tumor volume was followed. Shown are averages and SD values from at least 5 mice per group.
# To test the ability of anti-AREG antibodies to reduce growth of human tumor cells implanted in immunocompromised mice, Cal 27 tumor cells were used which were inoculated subcutaneously and randomized for treatment after tumors became palpable. […] Furthermore, studies testing pairs of two mAbs illustrate their enhanced anti-tumor activities (data not shown), this can be attributed to the fact that the mAbs bind to distinct antigenic determinants of amphiregulin.
# MLS ovarian cancer cells = assay: MLS ovarian tumor xenograft in nude mice; format: in vivo; conditions: MLS tumors
# Protocol: FIG. 7A, female nude mice (6 weeks old) were inoculated subcutaneously with MLS ovarian cancer cells (2×10^6 per animal). Once tumors became palpable, mice were randomized into two groups. Eleven mice were injected intraperitoneally with an anti-AREG mAb (AR30; 200 μg/mouse; twice a week, on days: 8, 11, 14, 17, and 21). The control group also included 11 mice. Shown are means±S.D. values; FIG. 7B, female nude mice (6 weeks old) were inoculated subcutaneously with MLS ovarian cancer cells (2×10^6 per animal). Once tumors became palpable, mice were randomized into four groups. One group (8 mice) was injected intraperitoneally with the AR30 mAb (100 μg/mouse twice a week, on days: 8, 14, 17, 21, 24 and 28). Another group (8 mice) was treated with cisplatin (5 mg/kg; on days 8 and 21). The fourth group was treated with a combination of mAb AR30 and cisplatin. The control group included 12 mice; and FIG. 7C, the indicated MLS tumors were excised, and their average weights determined. Representative tumors were photographed.
# All animal procedures were approved by the Weizmann Institute of Science's review board. Female athymic NCr-nude mice (6 weeks old) were inoculated subcutaneously with 2×10^6 human ovarian MLS cancer cells. Once tumors became palpable (5-7 days), the mice were randomized into groups and injected intraperitoneally at the indicated time points with the indicated monoclonal antibodies, chemotherapy or the combination. Tumor volumes were monitored twice a week, and body weights were measured once a week.
# MCF10A cells = assay: MTS proliferation assay of MCF10A cells; format: cell-based, human; conditions: 72 h, absence or presence of AREG, relatively high mAb concentrations
# Protocol: Proliferation assays using MTS were performed on MCF10A cells (1,000 cells per well). C ells were plated on the day before and treated for 72 h with the indicated mAbs (1, 5, 10, 20 or 50 ug/mL). Increasing concentrations of the indicated mAbs (either alone or in combination with AREG) were used in medium supplemented with 1% serum and AREG (either at 10 or 100 ng/mL).
Molecule,ubiquitination of EGFR (EGFR [1]),EGFR downregulation (EGFR [2]),binding of AR30 with human AREG (human AREG [3]),recognition of other EGFR ligands (human AREG [3]),"effect of AREG on receptor phosphorylation (EGFR [4]; AR30 5-50 μg/mL, FIGS. 6E-6F)",AREG-induced phosphorylation of EGFR (EGFR [4]),downstream signaling to ERK (phosphorylated ERK) (EGFR [4]; data not shown),antigenic determinant targeted (human AREG [5]),tumor growth [6],"tumor growth (MLS ovarian cancer cells; AR30 100 μg/mouse twice a week, cisplatin 5 mg/kg, FIG. 7B)","tumor growth (MLS ovarian cancer cells; antibodies injected into the peritoneum, six weeks, data not shown)","anti-tumor effect compared with cetuximab (MLS ovarian cancer cells; six weeks, data not shown)",inhibition of proliferation (MCF10A cells)
"TGF-alpha: transforming growth factor alpha, high-affinity EGFR ligand",strong ubiquitination,70-75%,–,–,–,–,–,–,–,–,–,–,–
"AR30: anti-AREG monoclonal antibody; heavy chain SEQ ID NO: 2, light chain SEQ ID NO: 16 (antibody, V domains shown, AR30 heavy chain (IgG) complete amino acids coding sequence; AR30 light chain (kappa) complete amino acids coding sequence) VH: EVQLQQSGAELVRSGASVKLSCTASGFNIKDSYMHWVKQRPEQGLEWIGWVDPDNGDTEYAPEFQGRATLTADTFSSTAYLQLTSLTSEDTAVYYCNAPSTYGHYGFAYWGQGTLVTVSA VL: DIVMTQAAPSVPVTPGESVSISCRSSKSLLHSNGKAYLYWFLQRPGQSPQLLIYRMSNLASGVPDRFSGSGSGTAFTLRISRVEAEDVGVYYCMQHLEYPLTFGAGTKLELKR",–,–,high affinity binding,"recognized no other EGFR ligand, except for the human form of HB-EGF",only partially reduced,low concentrations of the antibodies were sufficient for blocking,insufficient for blocking downstream signaling to ERK,engages a different determinant of human AREG,comparably inhibit tumor growth,only mildly inhibited,partly inhibited tumor growth,at least as effective as cetuximab,Moderate inhibition
"AR558: anti-AREG monoclonal antibody from AREG knockout mice; heavy chain SEQ ID NO: 30, light chain SEQ ID NO: 46 (antibody, V domains shown, AR558 heavy chain IgG complete amino acids coding sequence; AR558 light chain (kappa) complete amino acids coding sequence) VH: EVQLQQSGAELVKPGASVKLSCTASGFNIKDTYMHWVKQRPEQGLEWIGRIDPANRSTKYDPKFQGKATITADTSSNTADLHLSSLTSEDTAVYYCARLYGDSVWYFDVWGAGTTVTVSSAKT VL: QIVLTQSPAILSASPGEKVTMTCRAGSSVNYIHWYQQKPGSSPKPWIYATSNLASGVPARFSGSGSGTSYSLTISRVEAEDAATYYCQQWSGYPPMLTFGAGTKLELKR",–,–,–,–,–,low concentrations of the antibodies were sufficient for blocking,–,engages a different determinant of human AREG,exceeded the activity of either antibody,–,–,–,Moderate inhibition
